# Data as given in the Immune Epitope Database (IEDB).
# Tests used:
# [1] = biological target: HLA-A*02:01; test: IEDB peptide-MHC binding, purified MHC/competitive/radioactivity; ≥ and ≤ were set here for values at or beyond the usual limits of such assays; details: source organism: Homo sapiens
# [2] = biological target: HLA-C*12:03; test: IEDB peptide-MHC binding, purified MHC/direct/fluorescence; filed as Kd, often an IC50 or EC50 that approximates it; ≥ and ≤ were set here for values at or beyond the usual limits of such assays
# [3] = biological target: HLA-A*02:01; test: IEDB peptide-MHC binding, purified MHC/competitive/fluorescence; filed as Kd, often an IC50 or EC50 that approximates it; ≥ and ≤ were set here for values at or beyond the usual limits of such assays
# [4] = biological target: HLA-A*30:01; test: IEDB peptide-MHC binding, purified MHC/competitive/radioactivity; filed as Kd, often an IC50 or EC50 that approximates it; ≥ and ≤ were set here for values at or beyond the usual limits of such assays; details: source organism: Vaccinia virus WR
# [5] = biological target: HLA-A*32:01; test: as above; details: source organism: Vaccinia virus WR
# [6] = biological target: HLA-B*08:01; test: as above; details: source organism: Vaccinia virus WR
# [7] = biological target: HLA-B*15:01; test: as above; details: source organism: Vaccinia virus WR
# [8] = biological target: HLA-B*15:03; test: as above; details: source organism: Vaccinia virus WR
# [9] = biological target: HLA-A*02:01; test: IEDB peptide-MHC binding, purified MHC/competitive/fluorescence; ≥ and ≤ were set here for values at or beyond the usual limits of such assays; details: source organism: Zaire ebolavirus
# [10] = biological target: HLA-B*07:02; test: as above; details: source organism: Zaire ebolavirus
# [11] = biological target: HLA-B*08:01; test: as above; details: source organism: Zaire ebolavirus
# [12] = biological target: HLA-A*02:03; test: IEDB peptide-MHC binding, purified MHC/direct/fluorescence; filed as Kd, often an IC50 or EC50 that approximates it; ≥ and ≤ were set here for values at or beyond the usual limits of such assays; details: source organism: Zaire ebolavirus
# [13] = biological target: HLA-A*02:11; test: as above; details: source organism: Zaire ebolavirus
# [14] = biological target: HLA-A*02:12; test: as above; details: source organism: Zaire ebolavirus
# [15] = biological target: HLA-A*02:16; test: as above; details: source organism: Zaire ebolavirus
# [16] = biological target: HLA-A*02:19; test: as above; details: source organism: Zaire ebolavirus
# [17] = biological target: HLA-A*03:01; test: as above; details: source organism: Zaire ebolavirus
# [18] = biological target: HLA-A*23:01; test: as above; details: source organism: Zaire ebolavirus
# [19] = biological target: HLA-A*24:03; test: as above; details: source organism: Zaire ebolavirus
# [20] = biological target: HLA-A*29:02; test: as above; details: source organism: Zaire ebolavirus
# [21] = biological target: HLA-A*68:02; test: as above; details: source organism: Zaire ebolavirus
# [22] = biological target: HLA-B*07:02; test: as above; details: source organism: Zaire ebolavirus
# [23] = biological target: HLA-A*26:01; test: IEDB peptide-MHC binding, purified MHC/competitive/fluorescence; filed as Kd, often an IC50 or EC50 that approximates it; ≥ and ≤ were set here for values at or beyond the usual limits of such assays; details: source organism: Zaire ebolavirus
# [24] = biological target: HLA-B*15:01; test: as above; details: source organism: Zaire ebolavirus
# [25] = biological target: HLA-B*15:17; test: as above; details: source organism: Zaire ebolavirus
# [26] = biological target: HLA-B*18:01; test: as above; details: source organism: Zaire ebolavirus
# [27] = biological target: HLA-B*27:03; test: as above; details: source organism: Zaire ebolavirus
# [28] = biological target: HLA-B*39:01; test: as above; details: source organism: Zaire ebolavirus
# [29] = biological target: HLA-B*46:01; test: as above; details: source organism: Zaire ebolavirus
# [30] = biological target: HLA-B*51:01; test: as above; details: source organism: Zaire ebolavirus
# [31] = biological target: HLA-B*57:01; test: as above; details: source organism: Zaire ebolavirus
sequence,measurement,setting,value
CQWGRLWQL,IC50,[1],1.43 µM
FIFLKKNEL,Kd,[2]; source organism: Variola virus,1.45 µM
same,Kd,[3]; source organism: Variola virus,3.02 µM
same,Kd,[4],0.0439 µM
same,Kd,[5],12.8 µM
same,Kd,[6],0.0966 µM
same,Kd,[7],4.77 µM
same,Kd,[8],18.5 µM
HAATNFREI,Kd,[2]; source organism: Angomonas deanei,0.025 µM
HPLARTAKV,IC50,[9],≥ 113 µM
same,IC50,[10],3.11 µM
same,IC50,[11],54.5 µM
same,Kd,[12],≥ 20 µM
same,Kd,[13],≥ 20 µM
same,Kd,[14],≥ 20 µM
same,Kd,[15],≥ 20 µM
same,Kd,[16],≥ 20 µM
same,Kd,[17],≥ 20 µM
same,Kd,[18],≥ 20 µM
same,Kd,[19],≥ 20 µM
same,Kd,[20],≥ 20 µM
same,Kd,[21],≥ 20 µM
same,Kd,[22],0.0459 µM
same,Kd,[3]; source organism: Zaire ebolavirus,≥ 20 µM
same,Kd,[23],≥ 20 µM
same,Kd,[24],≥ 20 µM
same,Kd,[25],≥ 20 µM
same,Kd,[26],≥ 20 µM
same,Kd,[27],≥ 20 µM
same,Kd,[28],≥ 20 µM
same,Kd,[29],≥ 20 µM
same,Kd,[30],0.201 µM
same,Kd,[31],≥ 20 µM
